Experimental data published in paper doi:10.1101/2024.02.28.582571.

Biological target: microtubules assembled from purified bovine brain tubulin (bovine) (UniProt Q6B856)
Assay: optical trap rupture force assay; kinetochores held on polystyrene beads through α-penta-His antibody; dynamic microtubules grown from coverslip-anchored GMPCPP seeds with bovine brain tubulin in BRB80, 1 mM GTP; 23 °C; force ramp 0.25 pN/s

Chain of UniProt Q6B856 (Q6B856 whole entry, looked up): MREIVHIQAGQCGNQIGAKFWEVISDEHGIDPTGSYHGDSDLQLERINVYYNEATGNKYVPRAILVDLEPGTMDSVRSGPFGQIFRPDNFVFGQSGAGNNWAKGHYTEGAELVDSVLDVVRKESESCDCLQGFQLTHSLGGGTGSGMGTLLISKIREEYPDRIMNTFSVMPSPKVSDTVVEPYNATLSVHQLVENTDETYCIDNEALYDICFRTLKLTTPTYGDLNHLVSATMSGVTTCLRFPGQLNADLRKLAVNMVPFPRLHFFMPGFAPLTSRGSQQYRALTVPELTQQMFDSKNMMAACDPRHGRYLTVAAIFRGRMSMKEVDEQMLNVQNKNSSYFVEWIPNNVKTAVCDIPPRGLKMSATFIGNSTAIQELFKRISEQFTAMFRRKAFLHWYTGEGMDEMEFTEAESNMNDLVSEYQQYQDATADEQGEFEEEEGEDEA

Row | Substance | median rupture force [pN]
1 | native kinetochores purified from Kluyveromyces marxianus via Dsn1-6His-3M3DK (from UniProt A0ABX6F0Z3 1-547) (complex) | 7.5
2 | native kinetochores purified from Saccharomyces cerevisiae via Dsn1-6His-3M3DK (from UniProt P40568 1-576) (complex) | 7.2
